test: soluble on expression in E. coli; label from the status in PepcDB or PDB records

| Sequence | soluble on expression in E. coli |
| --- | --- |
| MSLNLIFKKKSYSFKLSTKVENSKTTYLTKLGWIIKLTSNDKKIGFGEVSPLLEEDLKKCAKQLNMIPKNVEAFNLSEQINIFHPCIQSAINSALAEINGKIIFKENYTFDEIDKTAILLNSENVITELNEIKQRQSIIGKSVTIKWKVALRDNHEEEANLEEILSQIGNNIKLRIDANGSWSRKIANRWADILKDNKNIDWLEQPLCVEDIEGMKELNKKIPIALDESLLKFPTLIDEWKGWQIRRPSQENNPVKLLRELENKKALISISTSFETGIGKRWLYHLSSLQLQGPTPKVPGLGMNKFPNSFLFLNEAKKIWDQLEGHHHHHH | not soluble |
| MCKMEITDLIKGMESANVSDIYIFLHEDGPVAFDASAAHLLCYFPEMEMESVFCSDSKRHRIIQGFALEPVLERLAQYPCLVDDDCIRIMGVL | not soluble |
| MGSDKIHHHHHHMGMNQISQDQIGQARILVVGDMMLDRYWFGDVERISPEAPVPVVQIKRSDERLGGAANVARNSAALGAQVGMLGVVGDDEPGRTIESLLSACKVQPYLHRDASVNTTIKLRVLAHQQQLLRVDFENPPTHEVLLSVLEGFQELVKQYEVLVLSDYGKGGLTHVGRMVEAGRAAGRMVLVDPKGDDYSRYRGATLITPNRAEIRRVVGAWKSEQDLTARAQNLRRDLQLEALLLTRSEEGMTLYTEAEVLHVSAQAREVYDVSGAGDTVIATLATMLAAGVSLKQAVQFANRAGGIVVGKLGTAVVSYPELFGAAG | not soluble |
| LTPLAQMAEGMERQDVSIDKWTLHAKQNLSLTEKEFYQKVQRLKQEYRQYDWVIAREDKMIKAIGTYTDKKNRTSFRLQLVTTLKKHNPTSYLLYEQMSLETPDSWNDTYEQFERETLGIFQEKVVIFTCLNGHLDDNMNIVLQKKANQLLNEFQARSVEHVVEPNFVSISAFTDEWEEYIMTSKHKMNLQIALRSAGMGGKHTVTVGTPIVTTEY | soluble |
| MYNNSELRKIQQKKLEILIDIAKFCNENKIRYWLDSGTLLGAVRHGGFIPWDDDIDIIIMQEDAKFLKENYKSENFEIVNTDEEGINFYKVISKKEQVQVGDSIAELDIDIFLVTYYPDSLALKFWNSFFHLKKNRIDRFSFSLFFTNILINLKRKLEKTKLFNYKNIEKKISYILDEAKKKNKAMPNIAYTPDCGFYLIIWREEEIFPLKKMKFEGIEFSIPNNYDTYLKKMYYSYMDLPPKEKRVPEHYQDKELKLIIKLEHHHHHH | not soluble |
| MKKILLCCSAGMSTSMLVKKMQQAAESKGIECKIDALSVNAFEEAIQEYDVCLLGPQVRFQLEELRKTADEYGKNIAAISPQAYGMMKGDEVLQQALDLIN | not soluble |
| GMTFRDTSAIASWHAHVYFDASSRDAAWTLREQIEAHWSGKLQLGRFHERPVGPHPMWSYQLAFTQEQFADLVGWLTLNHGALDIFLHPNTGDALRDHRDAAVWIGHSHELVLSALN | soluble |
| VLSHCLETGFLTAYLALLVNFKPDVALKCGLYHDIGKADDENGKKNHTVTGAKIGDEFYFENDVKYTIANHHNKNVDNVYCRLTQIGDKLSAG | not soluble |
| MYQLEKEPIVGAETFYVDGAANRETKLGKAGYVTNRGRQKVVTLTDTTNQKTELQAIYLALQDSGLEVNIVTDSQYALGIITQWIHNWKKRGWKTADKKPVKNVDLVNQIIEQLIKKEKVYLAWVPAHKGIGGNEQVDKLVSAGIRKVLF | soluble |
| MGSDKIHHHHHHMERIVDTADGRFDTRLTGTGNVTFILDHGMMSSHYQWGWLRGELLKQGRVFEYSRLGYGRSTRGKTKRLFTRQADELERVLALLDIKGPFVFIGHSLGAYISLELGRRRPDETAGIVLLDPSHPEVDAELPNWYERTQEEWNRFLYVLSHVRPLAWLIPDDLGARMFTSLPEADRIPMWRNMARKNHWRGTLDEWQAVEANNQHVLEVVEHIVPPVLVLSASDWAGGMPENWLNPELTKRINAAHERFAASLPDAAFHVIPNTNHYTIAGFSEEAATTIVSLIRNAFFK | not soluble |
| MRREILVAAAILLDSRGRVLLVGNDWGRRGRVRYTLPGGTVEPGETAVEALVREVREETGLRVRSVEHLAYVIQVEDRRKNERTLAMAFRATYEGLLNPRDPDGHIVEARFFTLEEVEERLKGHLPLLEPLRAYLRGERGRFYAYAGWHAPGVVV | soluble |
| GPGSMGIIKHVAVILDVSEASLEQHVLERVRQLDEDTVVRRLSEEKAGKLPDFIKLSEDIIEKNDLRKSGEGSVESIQRFVCFVTDNKTRQNGMVAYAMHCLQIPVLSLTKGQKAKGNDDAEHWVSTILYKDLDGSHTDPLAAVNEFFTFPDKVGELLAVEGRDSQLTLQYCRELRSYLQRAWSAEVKLVGPNGCDMSEEGLDGTKCGETDNVEEQVEVESGIHAPLVKELLGNSQLESTHQNDHLLHGAMYALNRHENLPIIRYRLQRGVNIILCRPMSSSLEKLFNKFSRMRGGAEDVRRSFIDAVKSLLQFEGRWLDMPRRRVVLIREGVAHSWSAWLGNEVIHPLVDWIPVDVKAGNIADHCASLEASVKKAVRRLSR | soluble |
| MKLDPQTLAHITSATLGNYNRVADDFREGTRDHDVSQNIDALLRHIEGSAPWQILDFGCGPGRDLKTFTAMGHVAVGLDGSERFAEMARAETGCEVFQQNFLELDLPQGRFDGIFANAVLFHIPRQELPRVLRELYATLKPGGVLFSSNPRGQNQEGWQGERYGAYHDLETWRQLLTDAGFAELEHYYRPLEHHHHHH | soluble |
| MTKKQKEILFCDYFEEWVEVYKVGAIAKITLAKYYNAAKQLRDLCPKLFISDFDRREYQRIINVYAETHEKQTVKDFHHHVKACIKDLFHDGLIDKDPTYRVVIKGAEPTRAKKRKFLQKEELSKLLQSLDMSQIGFGWFVMLVAKTGMRYAEALAITPADFDWTAQTISINKTWDYKYNKGFAKTKTLSSVRTIKIDWQIVGQFKPLIKDFPEDEPIFVEKFGDGTYKRQFNSTINNFLAVKCN | not soluble |
| MNKQLLSCSLKSGKQVTMVVASVATDGVDQQVEISYYDQKVIGNGSFGVVFLAKLSTTNEMVAIKKVLQDKRFKNRELQIMRKLNHPNIVKLKYFFYSSGEKKDELYLNLILEYVPETVYRVARHYSKQRQQIPMIYVKLYMYQLLRSLAYIHSIGICHRDIKPQNLLIDPESGVLKLCDFGSAKYLVRNEPNVSYICSRYYRAPELIFGATNYTNSIDVWSAGTVMAELLLGQPIFPGDSGVDQLVEIIKVLGTPTREQIQSMNPNYKEFKFPQIKAHPWNKVFRVHTPAEAIDLISKIIEYTPTSRPTPQAACQHAFFDELRNPDARLPSGRPLPTLEMDGPMGTGEVSTTSGDVAGPSA | not soluble |
| CSPVRERRLEHQLEPGDTLAGLALKYGVTMEQIKRANRLYTNDSIFLKKTLYIPILTEPRDLFN | soluble |
| MSLELFRSKTCALCKGRKLMCGRPRCPILEKFRVAKSVESKINKKEIFGASPPSVFVGEFGYPNVRIGPMVPPVEGDTSFMDDPSRWENVTILEIMEYRSMLVMGETNAHVQVKKNLNFLTHIQELAMANKPVDSEILLKKTPKLDLITGGFTPPVGPRETMLKFKLAENPKIPKKTDYIVNDELKANEGMISLYDSGFDEYYIIKLLSTGLLGVNKKLVPTKWSITAAQDLLGKYVKKSILEYSQINEYEVYFKNFLGNRYAVLLIPDIYAYEMLEVWLKGSLFSGESYNVLSDFEDTTGMKGYADEITGAFYACRLSILEYLKKRKKQAKILVFREITPEYYAPVGVWQIRTGVKLAMENRVGRFNNLKSALESIKKHLEVPIDDYKTKSKILKSNDRQITLDKFFEGHHHHHH | not soluble |
| MRIGVIMGGVSSEKQVSIMTGNEMIANLDKNKYEIVPITLNEKMDLIEKAKDIDFALLALHGKYGEDGTVQGTLESLGIPYSGSNMLSSGICMDKNISKKILRYEGIETPDWIELTKMEDLNFDELDKLGFPLVVKPNSGGSSVGVKIVYDKDELISMLETVFEWDSEVVIEKYIKGEEITCSIFDGKQLPIISIRHAAEFFDYNAKYDDASTIEEVIELPAELKERVNKASLACYKALKCSVYARVDMMVKDGIPYVMEVNTLPGMTQASLLPKSADAAGIHYSKLLDMIIETSLRVRKEEGF | not soluble |
| GPGSMTSEEAVECTDALELVRCPSSNARVVPNRFDEEYIRGRLQEAEKIFEKAKTDVSRGLSKCEDWLGACEAFNEAGGLFASCGHPAEAARAFFHASIITRAFKDEEETTTALSLAVENMQLVEPLLAVNLMQKISETLKKGGFFFQAARCKRDSALLLEDRLGEPERAIELYREAIELYGNRSFMSSFSRGCMERITTLTVELKKYTEASKLFVEETAYAPRGRPKTRQFFLSLLCMLAEGFGDNDRYFDSLYYARKRFHALQEEERDFQHGKENRLVRKIIEANDNGSLTAFDTAVYEYRSSSTYVPDAVFENLIERCRKNLYEHLEQYI | soluble |
| MGSDKIHHHHHHMQSGYYSSTGGIVTQFHRLDMISNNLANANTTGFKRDDVVIGDFLRLYEQQKEPLPLEDQTREAAKFLNRAMDRVPSIVEEYTDRSIGGITPSENRFDFALQSENAYFMIETPEGIRYTRDGSFTLNSEGRLVTKEGFAVLPREFVQSRQYIDIPDGVVIEADRNGNLYSRTLNNDELGDIIPLGNIAIASFENPKYLEKTGKNLYEYPQERMGERNLATNSGALVQGYLEKSNVNAVWEMTGLIETNRLVDMYSKVMKTHMDDLNTEAITKLAVKA | not soluble |
| MGSSHHHHHHSSGLVPRGSHMKARELDVPGAWEITPTIHVDSRGLFFEWLTDHGFRAFAGHSLDVRQVNCSVSSAGVLRGLHFAQLPPSQAKYVTCVSGSVFDVVVDIREGSPTFGRWDSVLLDDQDRRTIYVSEGLAHGFLALQDNSTVMYLCSAEYNPQREHTICATDPTLAVDWPLVDGAAPSLSDRDAAAPSFEDVRASGLLPRWEQTQRFIGEMRGTGSV | soluble |
| MGSDKIHHHHHHMETSEILKKVRQIEIKTRGLSNNIFAGQYHSAFKGRGMSFSEVREYQFGDDIRDIDWNVTARFNKPYVKVFEEERELTVMLMVDVSGSLEFGTVKQLKKDMVTEIAATLAFSAIQNNDKIGVIFFSDRIEKFIPPKKGRKHILYIIRELIDFQPESRRTNIRLALEYLTNVMKRRCTAFILSDFIDQDNFKNALTIANRKHDVVALQVYDRRVSDLPPVGLMRIKDAETGHEQWIDTSSKAVRRAHRDWWINKQTELNDTFTKSNVDSVSVRTDQDYVKALLNLFAKRN | not soluble |
| MKVLNELRQFYPLDELLRAAEIPRSTFYYHLKALSKPDKYADVKKRIGEIYHENRGRYGYRRVTLSLHREGKQINHKAVQRLMGTLSLKAAIKVKRYRSYRGEVGQTAPNVLQRDFKATRPNEKWVTDVTEFAVNGRKLYLSPVIDLFNNEVISYSLSERPVMNMVENMLDQAFKKLNPHEHPVLHSDQGWQYRMRRYQNILKEHGIKQSMSRKGNCLDNAVVECFFGTLKSECFYLDEFSNISELKDAVTEYIEYYNSRRISLKLKGLTPIEYRNQTYMPRV | not soluble |
| MGHHHHHHSHMIGSGLSDLFDLTSGVGTLSGSYVAPKAVWLPAMKAKGLEISGTFTRQVGSISMDLQLTNKALQVMTDFAIQFNRNSFGLAPAAPLQVHAPLSPNQTVEISLPLSTVGSVMKMEPLNNLQVAVKNNIDVFYFSTLYPLHILFVEDGKMDRQMFLATWKDIPNENEAQFQIRDCPLNAEAASSKLQSSNIFTVAKRNVEGQDMLYQSLKLTNGIWVLAELRIQPGNPSCTDLELSLKCRAPEVSQHVYQAYETILKN | soluble |

From the DeepSol protein solubility set
